# T1: full-length HTm4 protein (human, recombinant, His tag cleaved with Factor Xa)
# T1 chain: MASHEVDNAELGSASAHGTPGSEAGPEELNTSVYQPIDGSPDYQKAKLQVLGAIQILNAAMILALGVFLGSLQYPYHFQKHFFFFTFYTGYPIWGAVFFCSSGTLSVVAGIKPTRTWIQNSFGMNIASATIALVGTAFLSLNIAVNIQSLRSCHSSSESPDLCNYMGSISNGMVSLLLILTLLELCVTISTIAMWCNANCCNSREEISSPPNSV
# What was measured:
# [1] = biological target: cdk2.cyclin A complex (recombinant, Upstate), P24941
# [2] = biological target: T1, full-length HTm4 protein (human, …)
protein,measurement,setting,value
"KAP (wild-type, full-length KAP protein) (protein) MKPPSSIQTSEFDSSDEEPIEDEQTPIHISWLSLSRVNCSQFLGLCALPGCKFKDVRRNVQKDTEELKSCGIQDIFVFCTRGELSKYRVPNLLDLYQQCGIITHHHPIADGGTPDIASCCEIMEELTTCLKNYRKTLIHCYGGLGRSCLVAACLLLYLSDTISPEQAIDSLRDLRGSGAIQTIKQYNYLHEFRDKLAAHLSSRDSQSRSVSR",Km of KAP phosphatase activity in the absence of HTm4 (substrate active cdk2.cyclin A),[1],"Vmax and Km for the samples in the presence and absence of HTm4 are 17.5, 1.30 nM/min, and 8.33, 2.68 µM, respectively"
same,Vmax of KAP phosphatase activity in the absence of HTm4 (substrate active cdk2.cyclin A),[1],"Vmax and Km for the samples in the presence and absence of HTm4 are 17.5, 1.30 nM/min, and 8.33, 2.68 µM, respectively"
same,Km of KAP phosphatase activity in the presence of HTm4,[2],A parallel increase in Km (to 8.33 µM) was also observed
same,Vmax of KAP phosphatase activity in the presence of HTm4,[2],the Vmax of KAP phosphatase activity increased dramatically to 17.5 nM/min
same,dephosphorylating activity of KAP toward phosphorylated cdk2,[2],HTm4 increases the dephosphorylating activity of KAP toward phosphorylated cdk2 by more than 6-fold
